From patent US9181340B2, “TEM8 antibodies, conjugates thereof, and their use” (The United States of America, as represented by the …, priority 2011, dated 2015)

T1: purified recombinant hTEM8(ED)-Fc fusion protein (Homo sapiens, UniProt Q9H6X2)
T1 sequence (Q9H6X2 33-321): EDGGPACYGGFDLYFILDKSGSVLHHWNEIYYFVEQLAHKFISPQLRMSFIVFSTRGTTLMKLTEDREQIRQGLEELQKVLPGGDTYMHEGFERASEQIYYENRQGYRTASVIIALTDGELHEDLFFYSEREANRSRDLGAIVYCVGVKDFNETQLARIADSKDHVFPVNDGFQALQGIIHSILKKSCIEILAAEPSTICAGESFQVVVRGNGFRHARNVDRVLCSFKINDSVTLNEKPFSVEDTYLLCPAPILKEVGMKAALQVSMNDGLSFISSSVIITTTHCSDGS

B1: L5 Fab: fully human anti-TEM8 Fab from phage display; VH SEQ ID NO: 4, VL SEQ ID NO: 9; Fab chains SEQ ID NOs: 30, 31 (antibody)
heavy: QVQLVESGGGLVQPGGSLRLSCAASGFTFNSYGLSWVRQAPGKGLEWVSNISSNGSYTYYADSVKGRFTISRDNSKNTLYLQMNSLRAEDTAVYYCARAGYGLFDVWGQGTLVTVSSAKTTAPSVYPLAPVCGDTTGSSVTLGCLVKGYFPEPVTLTWNSGSLSSGVHTFPAVLQSDLYTLSSSVTVTSSTWPSQSITCNVAHPASSTKVDKKIEPRGPTIKPCPPCKCPAPNLLGGPSVFIFPPKIKDVLMISLSPIVTCVVVDVSEDDPDVQISWFVNNVEVHTAQTQTHREDYNSTLRVVSALPIQHQDWMSGKEFKCKVNNKDLPAPIERTISKPKGSVRAPQVYVLPPPEEEMTKKQVTLTCMVTDFMPEDIYVEWTNNGKTELNYKNTEPVLDSDGSYFMYSKLRVEKKNWVERNSYSCSVVHEGLHNHHTTKSFSRTPGK
light: DIELTQPPSVSVAPGQTARISCSGDKLREYYVHWYQQKPGQAPVLVIYGDNKRPSGIPERFSGSNSGNTATLTISGTQAEDEADYYCSSWAGSRSGTVFGGGTKLTVLGQPKSTPTLTVFPPSSEELKENKATLVCLISNFSPSGVTVAWKANGTPITQGVDTSNPTKEGNKFMASSFLHLTSDQWRSHNSFTCQVTHEGDTVEKSLSPAECL
modifications: Antibody sequence
B2: 1D2 Fab: fully human anti-TEM8 Fab from phage display; VH SEQ ID NO: 5, VL SEQ ID NO: 10; Fab chains SEQ ID NOs: 32, 33 (antibody)
heavy: QVQLKESGPALVKPTQTLTLTCTFSGFSLSTSGMGVSWIRQPPGKALEWLAHINLDDDKYYSTSLKTRLTISKDTSKNQVVLTMTNMDPVDTATYYCARGGYGDMDVWGQGTLVTVSSASTKGPSVFPLAPSSKSTSGGTAALGCLVKDYFPEPVTVSWNSGALTSGVHTFPAVLQSSGLYSLSSVVTVPSSSLGTQTYICNVNHKPSNTKVDKKVEPKSEF
light: DIELTQPPSVSVAPGQTARISCSGDNIRSMFVHWYQQKPGQAPVLVIYADNKRPSGIPERFSGSNSGNTATLTISGTQAEDEADYYCSSYDYNAHLVVFGGGTKLTVLGQPKAAPSVTLFPPSSEELQANKATLVCLISDFYPGAVTVAWKADSSPVKAGVETTTPSKQSNNKYAASSYLSLTPEQWKSHRSYSCQVTHEGSTVEKTVAPTEA
modifications: Antibody sequence
B3: L1 Fab: fully human anti-TEM8 Fab from phage display; VH SEQ ID NO: 2, VL SEQ ID NO: 7; Fab chains SEQ ID NOs: 26, 27 (antibody)
heavy: QVQLVESGGGLVQPGGSLRLSCAASGFTFNSYAMSWVRQAPGKGLEWVSLISSGSSTYYADSVKGRFTISRDNSKNTLYLQMNSLRAEDTAVYYCARAGFKFDNWGQGTLVTVSSASTKGPSVFPLAPSSKSTSGGTAALGCLVKDYFPEPVTVSWNSGALTSGVHTFPAVLQSSGLYSLSSVVTVPSSSLGTQTYICNVNHKPSNTKVDKKVEPKSEF
light: DIELTQPPSVSVAPGQTARISCSGDSIPNYSVSWYQQKPGQAPVLVIYADSNRPSGIPERFSGSNSGNTATLTISGTQAEDEADYYCQSYDNTSPDLVFGGGTKLTVLGQPKAAPSVTLFPPSSEELQANKATLVCLISDFYPGAVTVAWKADSSPVKAGVETTTPSKQSNNKYAASSYLSLTPEQWKSHRSYSCQVTHEGSTVEKTVAPTEA
modifications: Antibody sequence
B4: L3 Fab: fully human anti-TEM8 Fab from phage display; VH SEQ ID NO: 3, VL SEQ ID NO: 8; Fab chains SEQ ID NOs: 28, 29 (antibody)
heavy: QVQLQQSGPGLVKPSQTLSLTCAISGDSVSTNGAAWGWIRQSPGRGLEWLGRIYYRSKWYNDYAVSVKSRITINPDTSKNQFSLQLNSVTPEDTAVYYCARMPGGFLFDLWGQGTLVTVSSASTKGPSVFPLAPSSKSTSGGTAALGCLVKDYFPEPVTVSWNSGALTSGVHTFPAVLQSSGLYSLSSVVTVPSSSLGTQTYICNVNHKPSNTKVDKKVEPKSEF
light: DIELTQPPSVSVAPGQTARISCSGDNIRSYYAHWYQQKPGQAPVLVIYGDSKRPSGIPERFSGSNSGNTATLTISGTQAEDEADYYCSSYASHDYVFGGGTKLTVLGQPKAAPSVTLFPPSSEELQANKATLVCLISDFYPGAVTVAWKADSSPVKAGVETTTPSKQSNNKYAASSYLSLTPEQWKSHRSYSCQVTHEGSTVEKTVAPTEA
modifications: Antibody sequence
B5: L2 Fab: fully human anti-TEM8 Fab from phage display; VH SEQ ID NO: 1, VL SEQ ID NO: 6; Fab chains SEQ ID NOs: 24, 25 (antibody)
heavy: QVQLKESGPALVKPTQTLTLTCTFSGFSLSTSGGGVSWIRQPPGKALEWLAHIYSNDDKSYSTSLKTRLTISKDTSKNQVVLTMTNMDPVDTATYYCARGGYFLDYWGQGTLVTVSSAKTTAPSVYPLAPVCGDTTGSSVTLGCLVKGYFPEPVTLTWNSGSLSSGVHTFPAVLQSDLYTLSSSVTVTSSTWPSQSITCNVAHPASSTKVDKKIEPRGPTIKPCPPCKCPAPNLLGGPSVFIFPPKIKDVLMISLSPIVTCVVVDVSEDDPDVQISWFVNNVEVHTAQTQTHREDYNSTLRVVSALPIQHQDWMSGKEFKCKVNNKDLPAPIERTISKPKGSVRAPQVYVLPPPEEEMTKKQVTLTCMVTDFMPEDIYVEWTNNGKTELNYKNTEPVLDSDGSYFMYSKLRVEKKNWVERNSYSCSVVHEGLHNHHTTKSFSRTPGK
light: DIELTQPPSVSVAPGQTARISCSGDNIGGIYVHWYQQKPGQAPVLVIYADSKRPSGIPERFSGSNSGNTATLTISGTQAEDEADYYCQSYDITSLVFGGGTKLTVLGQPKSTPTLTVFPPSSEELKENKATLVCLISNFSPSGVTVAWKANGTPITQGVDTSNPTKEGNKFMASSFLHLTSDQWRSHNSFTCQVTHEGDTVEKSLSPAECL
modifications: Antibody sequence

Key:
HCT-116 tumors = conditions: mouse, in vivo
[1] = biological target: T2, human TEM8 (293/Flag-hTEM8 cells) (Homo sapiens, UniProt Q9H6X2); test: Flow cytometry / immunofluorescence binding to 293/Flag-hTEM8 cells; conditions: immunofluorescence staining and flow cytometry
T2 construct: expressed in transfected cells
T2 sequence (Q9H6X2 33-564): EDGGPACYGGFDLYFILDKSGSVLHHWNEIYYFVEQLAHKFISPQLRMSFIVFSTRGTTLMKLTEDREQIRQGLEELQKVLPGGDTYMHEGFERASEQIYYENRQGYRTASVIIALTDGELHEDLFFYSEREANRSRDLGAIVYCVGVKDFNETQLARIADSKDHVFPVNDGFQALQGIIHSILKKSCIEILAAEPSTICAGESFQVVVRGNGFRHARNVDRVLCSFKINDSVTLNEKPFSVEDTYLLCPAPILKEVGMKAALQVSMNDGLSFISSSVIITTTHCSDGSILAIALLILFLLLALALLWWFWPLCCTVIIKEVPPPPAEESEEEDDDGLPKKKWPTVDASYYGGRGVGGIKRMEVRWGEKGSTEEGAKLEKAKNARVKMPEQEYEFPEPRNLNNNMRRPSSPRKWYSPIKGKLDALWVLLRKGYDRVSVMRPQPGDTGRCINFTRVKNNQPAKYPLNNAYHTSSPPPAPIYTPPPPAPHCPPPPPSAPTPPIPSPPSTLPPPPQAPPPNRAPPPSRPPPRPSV
Description: 293 cells were obtained from ATCC. 293 cells were cultured in DMEM supplemented with 10% FBS. 293 cells expressing mouse (293-mTEM8) or a flag-tagged human TEM8 (293/Flag-huTEM8) were generated by lipofectamine 2000 mediated stable transfection of 293 cells with a mTEM8/pcDNA3 or a Flag-huTEM8/pcDNA3 expression vector (Yang et al., Biochim Biophys Acta 1813(1):39-49, 2011).
(§1) Trypsinized cells were rinsed in cold PBS/0.5% BSA (PBS/BSA) and labeled with anti-TEM8 Fabs (human) or full IgG (human-mouse) primary antibodies in PBS/BSA containing 10% goat serum at 4° C. Cells were rinsed with PBS/BSA and incubated with FITC-conjugated goat anti-human Fab or anti-mouse IgG secondary antibodies (Jackson Immunoresearch, West Grove, Pa.), rinsed again, and analyzed on a FACScalibur flow cytometer (Becton Dickinson, Franklin Lakes, N.J.) using CellQuest™ Software.

[2] = biological target: T3, mouse TEM8 (293/mTEM8 cells) (Mus musculus, UniProt Q9CZ52); test: Flow cytometry binding to 293/mTEM8 cells
T3 construct: expressed in transfected cells
T3 sequence (Q9CZ52 31-562): as the sequence (Q9H6X2 33-564) above, with K40R, R104S, S241A, I297V, A327V, N458S, A468T, T471P, P493A counted along it
Description: 293 cells were obtained from ATCC. 293 cells were cultured in DMEM supplemented with 10% FBS. 293 cells expressing mouse (293-mTEM8) or a flag-tagged human TEM8 (293/Flag-huTEM8) were generated by lipofectamine 2000 mediated stable transfection of 293 cells with a mTEM8/pcDNA3 or a Flag-huTEM8/pcDNA3 expression vector (Yang et al., Biochim Biophys Acta 1813(1):39-49, 2011). Because transfected cells expressed variable levels of TEM8 (see 293/mTEM8 cells in FIG. 8C) they were subsequently enriched for surface expression by florescence activated cell sorting (FACS) using anti-AF344 (293/mTEM8) (Yang et al., Biochim Biophys Acta 1813(1):39-49, 2011) or anti-FLAG antibodies (293/Flag-hTEM8) (M2 clone, Sigma).
as §1

[3] = biological target: TEM8 (CHO-TEM8 cells), binding of Anthrax PA (Homo sapiens, UniProt Q9H6X2)
[4] = biological target: T1, purified recombinant hTEM8(ED)-Fc fusion protein; test: ELISA of Fabs on TEM8(ED)-Fc

Molecule | body weight in HCT116 tumor-bearing mice (HCT-116 tumors) | binding to cells expressing human TEM8 [1] | binding to cells expressing mouse TEM8 [2] | blocking of PA-FITC binding to CHO-TEM8 cells [3] | reactivity with TEM8 protein in ELISA [4]
O=c1[nH]cc(F)c(=O)[nH]1 [Antibody 5-FU, 5-fluorouracil] | small, albeit non-significant, reduction in body weight |  |  |  | 
CCc1c2c(nc3ccc(OC(=O)N4CCC(N5CCCCC5)CC4)cc13)-c1cc3c(c(=O)n1C2)COC(=O)[C@]3(O)CC [IRT, irinotecan] | small, albeit non-significant, reduction in body weight |  |  |  | 
B1 |  | react | react | neutralize binding of PA to its cell surface receptor, TEM8 | react
B2 |  | react | react |  | react
B3 |  | react | react | neutralize binding of PA to its cell surface receptor, TEM8 | react
B4 |  | react | react | neutralize binding of PA to its cell surface receptor, TEM8 | react
B5 |  | react | react | neutralize binding of PA to its cell surface receptor, TEM8 | react
